Target: ConCv5 KIKO 473T SOSIP soluble gp140 Env trimer (HIV-1 (clade C consensus))
Experiment: SEC; analytical size exclusion chromatography of 10 µg of the final purified protein pool

Substance: ConCv5 KIKO 473T SOSIP soluble gp140 Env trimer (complex)
- stoichiometry N: 3
